Biological target: the molecule itself
Assay: crystal structure

B1: Helicobacter pylori high temperature requirement A protein (HpHtrA) (enzyme)
chain: GNIQIQSMPKVKERVSVPSKDDTIYSYHDSIKDSIKAVVNISTEKKIKNNFIGGGVFNDPFFQQFFGDLGGMIPKERMERALGSGVIISKDGYIVTNNHVIDGADKIKVTIPGSNKEYSATLVGTDSESDLAVIRITKDNLPTIKFSDSNDISVGDLVFAIGNPFGVGESVTQGIVSALNKSGIGINSYENFIQTDASINPGNSGGALIDSRGGLVGINTAIISKTGGNHGIGFAIPSNMVKDTVTQLIKTGKIERGYLGVGLQDLSGDLQNSYDNKEGAVVISVEKDSPAKKAGILVWDLITEVNGKKVKNTNELRNLIGSMLPNQRVTLKVIRDKKERAFTLTLAERKNPNKKETISAQNGAQGQLNGLQVEDLTQETKRSMRLSDDVQGVLVSQVNENSPAEQAGFRQGNIITKIEEVEVKSVADFNHALEKYKGKPKRFLVLDLNQGYRIILVK
  stoichiometry N: 6

Reference: article PMC4724879 (Chemical science (Royal Society of Chemistry : 2010), 2014)
